Results published in article PMC10783490, “Biochemical and cellular insights into the Baz2B protein, a non-catalytic subunit of the chromatin remodeling complex” (Nucleic Acids Research, 2023).
Substitutions are numbered along the chain they refer to.

What was measured:
[1] = target: T1, GST-AT1-AT2 Baz2A (UniProt Q91YE5 641-674); test: EMSA; 1.25 uM DNA, 3.6 or 14.4 uM protein; EMSA: 20 mM HEPES pH 7.5, 30 mM KCl, 1 mM EDTA, 10 mM (NH4)2SO4, 1 mM DTT, 4 C, 10 nM probe; MST: same plus 0.1 ug/ml BSA, 5 nM probe, 25 C; GST-AT-hook and bromodomain EMSA as in cited refs; settings: protein: recombinant; tags: GST; label: none (SybrSafe); blunt
T1 chain: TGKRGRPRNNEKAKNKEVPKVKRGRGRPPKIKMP

[2] = target: T2, BRD Baz2B (Homo sapiens, UniProt Q9UIF8 2060-2164); test: EMSA; up to 112 uM, one pot; EMSA: 20 mM HEPES pH 7.5, 30 mM KCl, 1 mM EDTA, 10 mM (NH4)2SO4, 1 mM DTT, 4 C, 10 nM probe; MST: same plus 0.1 ug/ml BSA, 5 nM probe, 25 C; GST-AT-hook and bromodomain EMSA as in cited refs; settings: protein: recombinant, tags: His6
T2 sequence: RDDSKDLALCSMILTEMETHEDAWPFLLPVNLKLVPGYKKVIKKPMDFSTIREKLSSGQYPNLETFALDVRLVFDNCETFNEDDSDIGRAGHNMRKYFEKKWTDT

[3] = target: T3, BRD Brg1 (UniProt P51532 1453-1564); test: EMSA; one pot with triplex and duplex; EMSA: 20 mM HEPES pH 7.5, 30 mM KCl, 1 mM EDTA, 10 mM (NH4)2SO4, 1 mM DTT, 4 C, 10 nM probe; MST: same plus 0.1 ug/ml BSA, 5 nM probe, 25 C; GST-AT-hook and bromodomain EMSA as in cited refs; settings: protein: recombinant; tags: His6
[4] = target: T3, BRD Brg1; test: EMSA; one pot with triplex and TFO; EMSA: 20 mM HEPES pH 7.5, 30 mM KCl, 1 mM EDTA, 10 mM (NH4)2SO4, 1 mM DTT, 4 C, 10 nM probe; MST: same plus 0.1 ug/ml BSA, 5 nM probe, 25 C; GST-AT-hook and bromodomain EMSA as in cited refs; settings: protein: recombinant; tags: His6; blunt
[5] = target: T3, BRD Brg1; test: EMSA; one pot with duplex and TFO; EMSA: 20 mM HEPES pH 7.5, 30 mM KCl, 1 mM EDTA, 10 mM (NH4)2SO4, 1 mM DTT, 4 C, 10 nM probe; MST: same plus 0.1 ug/ml BSA, 5 nM probe, 25 C; GST-AT-hook and bromodomain EMSA as in cited refs; settings: protein: recombinant; tags: His6; triplex, third strand TFO
[6] = target: T4, TAM-AT1-AT2 Baz2B (Homo sapiens, UniProt Q9UIF8 721-884); test: EMSA; mutant series; EMSA: 20 mM HEPES pH 7.5, 30 mM KCl, 1 mM EDTA, 10 mM (NH4)2SO4, 1 mM DTT, 4 C, 10 nM probe; MST: same plus 0.1 ug/ml BSA, 5 nM probe, 25 C; GST-AT-hook and bromodomain EMSA as in cited refs; settings: protein: recombinant; tags: His6; blunt
T4 sequence: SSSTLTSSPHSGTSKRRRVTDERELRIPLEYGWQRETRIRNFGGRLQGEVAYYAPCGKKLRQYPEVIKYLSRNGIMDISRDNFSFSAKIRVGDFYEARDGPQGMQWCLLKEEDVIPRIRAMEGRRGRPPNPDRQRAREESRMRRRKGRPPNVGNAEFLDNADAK

[7] = target: T5, TAM-AT1-AT2 Baz2B Q767A (Homo sapiens, UniProt Q9UIF8 721-884, Q767A); test: EMSA; EMSA: 20 mM HEPES pH 7.5, 30 mM KCl, 1 mM EDTA, 10 mM (NH4)2SO4, 1 mM DTT, 4 C, 10 nM probe; MST: same plus 0.1 ug/ml BSA, 5 nM probe, 25 C; GST-AT-hook and bromodomain EMSA as in cited refs; settings: protein: recombinant; tags: His6; blunt
T5 sequence: T4 sequence with Q47A

[8] = target: T4, TAM-AT1-AT2 Baz2B; test: as above; settings: protein: recombinant; tags: His6; blunt
[9] = target: T6, TAM-AT1-AT2 Baz2B R781E (Homo sapiens, UniProt Q9UIF8 721-884, R781E); test: as above; settings: protein: recombinant; tags: His6; blunt
T6 sequence: T4 sequence with R61E

[10] = target: T7, TAM-AT1-AT2 Baz2B L766A (Homo sapiens, UniProt Q9UIF8 721-884, L766A); test: as above; settings: protein: recombinant; tags: His6; blunt
T7 sequence: T4 sequence with L46A

[11] = target: T8, TAM Baz2B (Homo sapiens, UniProt Q9UIF8 721-843); test: as above; settings: protein: recombinant; tags: His6; blunt
T8 sequence: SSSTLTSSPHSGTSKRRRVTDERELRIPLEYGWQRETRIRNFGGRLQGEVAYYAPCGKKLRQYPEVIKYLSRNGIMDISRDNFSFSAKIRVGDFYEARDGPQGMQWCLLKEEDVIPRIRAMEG

[12] = target: T9, TAM-AT1-AT2 Baz2B R760E (Homo sapiens, UniProt Q9UIF8 721-884, R760E); test: as above; settings: protein: recombinant; tags: His6; blunt
T9 sequence: T4 sequence with R40E

[13] = target: T10, TAM-AT1-AT2 Baz2B R765E (Homo sapiens, UniProt Q9UIF8 721-884, R765E); test: as above; settings: protein: recombinant; tags: His6; blunt
T10 sequence: T4 sequence with R45E

[14] = target: T11, TAM-AT1-AT2 Baz2B R837E (Homo sapiens, UniProt Q9UIF8 721-884, R837E); test: as above; settings: protein: recombinant; tags: His6; blunt
T11 sequence: T4 sequence with R117E

T3 sequence (P51532 1453-1564): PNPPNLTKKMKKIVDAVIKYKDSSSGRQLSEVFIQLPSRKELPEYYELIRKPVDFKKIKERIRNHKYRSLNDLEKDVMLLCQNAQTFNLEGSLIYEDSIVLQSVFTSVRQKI

B1: rDNA enhancer (En dsDNA) (dsDNA)
DNA 1: TGGATCTTTTTTTTTTTTTTTCTTTTTCCTCCA
DNA 2: TGGAGGAAAAAGAAAAAAAAAAAAAAAGATCCA
Q: Does B1 bind [1]?
A: binds

Q: Does GGAGGAAAAAAGAAAAAAAAAAAAAAAGA (ssDNA) [TFO #5 (29 nt ssDNA)] bind [2]?
A: no binding

Q: Does GGAGGAAAAAAGAAAAAAAAAAAAAAAGA (ssDNA) [TFO #5 (29 nt ssDNA)] bind [3]?
A: no binding

B2: En3_D 29 bp dsDNA (dsDNA)
DNA 1: TCTTTTTTTTTTTTTTTCTTTTTTCCTCC
DNA 2: GGAGGAAAAAAGAAAAAAAAAAAAAAAGA
Q: Does B2 bind ([2]; blunt)?
A: no binding

Q: Does B2 bind [4]?
A: binds

B3: DNA triplex En3_D + TFO #5 (structured_DNA)
DNA 1: TCTTTTTTTTTTTTTTTCTTTTTTCCTCC
DNA 2: GGAGGAAAAAAGAAAAAAAAAAAAAAAGA
DNA 3: GGAGGAAAAAAGAAAAAAAAAAAAAAAGA
Q: Does B3 bind ([2]; triplex, third strand TFO)?
A: no binding

Q: Does B3 bind [5]?
A: binds

B4: 45 bp dsDNA FLP015/FLP016 (dsDNA)
DNA 1: ATCAGTTCTCCGGGTTGTCAGGTCGACCAGTTGTTCCTTTGAGGT
DNA 2: ACCTCAAAGGAACAACTGGTCGACCTGACAACCCGGAGAACTGAT
Q: How did the Kd [6] turn out when B4 was run?
A: 116 ± 50.9 nM

Q: And the Kd [7]?
A: 440 ± 256 nM

Q: And the Kd [8]?
A: 82.2 nM

Q: What about the Kd [9] of the same binder?
A: 232 ± 101 nM

Q: What about the Kd [10] of the same binder?
A: 98.1 ± 29.5 nM

Q: And the Kd [11]?
A: 468 nM

Q: What about the Kd [12] of the same binder?
A: 93.6 ± 38.2 nM

Q: What about the Kd [13] of the same binder?
A: 30.8 ± 6.9 nM

Q: What about the Kd [14] of the same binder?
A: 108 ± 9.3 nM
